B1: g35 2'-F (ssRNA)
RNA: GGGACGCUCACGUACGCUAAGAUUUGUGUGAUACCCGACACUCUAACGGGGUAGCAGGGCUCAGUGCCUGGACGUGCAGU
modifications: 2'-F on all C and U
B2: g1 2'-F (ssRNA)
RNA: GGGACGCUCACGUACGCUAAACACACUGAGAGUUUGACCAGCUAUUAAAUGGGUCGUGACUCAGUGCCUGGACGUGCAGU
modifications: 2'-F on all C and U
B3: g14 2'-F (ssRNA)
RNA: GGGACGCUCACGUACGCUAAUCAUCGGGACAUCGGAUGGAACGGGUGUCAAGAAGCGUGUUCAGUGCCUGGACGUGCAGU
modifications: 2'-F on all C and U
B4: g21 2'-F (ssRNA)
RNA: GGGACGCUCACGUACGCUAACCUUGGUGUCAUCCGACCAAAUUAGAACGGGAUGAGGAAGUCAGUGCCUGGACGUGCAGU
modifications: 2'-F on all C and U
B5: g7 2'-F (ssRNA)
RNA: GGGACGCUCACGUACGCUAACUUGAAGUCAAGGGUAGAGUGACCAUGCAGCUCGUAGACAUCAGUGCCUGGACGUGCAGU
modifications: 2'-F on all C and U
B6: g33 2'-F (ssRNA)
RNA: GGGACGCUCACGUACGCUAAACUUUUGGCGAUCUCCGGCCGGAUACGGGAGAACGAGGUAUCAGUGCCUGGACGUGCAGU
modifications: 2'-F on all C and U
B7: g23 2'-F (ssRNA)
RNA: GGGACGCUCACGUACGCUAAAUGGGAGUGCGCCUCGGCUCUAACGGAGGUAUGCACGUCAUCAGUGCCUGGACGUGCAGU
modifications: 2'-F on all C and U
B8: g2 2'-F (ssRNA)
RNA: GGGACGCUCACGUACGCUAAACCCUGGCGAUCUCCGGCCGGAUACGGGAGAACGAGGUACUCAGUGCCUGGACGUGCAGU
modifications: 2'-F on all C and U
B9: g15 2'-F (ssRNA)
RNA: GGGACGCUCACGUACGCUAAGACGCGGGCCACCGGCUAGCGACGGGUGGUAAAGGGCUUGUCAGUGCCUGGACGUGCAGU
modifications: 2'-F on all C and U
B10: g3 2'-F (ssRNA)
RNA: GGGACGCUCACGUACGCUAAGGGCGAAACUGUCGUGACACGGUUUGACAUGCCGGCCUUAUCAGUGCCUGGACGUGCAGU
modifications: 2'-F on all C and U
B11: g18 2'-F (ssRNA)
RNA: GGGACGCUCACGUACGCUAAGGCACCCUAUAGGAUUCAGCCCCUAACCCGGUGUUGUGAAUCAGUGCCUGGACGUGCAGU
modifications: 2'-F on all C and U
B12: g9 2'-F (ssRNA)
RNA: GGGACGCUCACGUACGCUAAGAUGUCUCAAUUGGUCGUGAUUGUGCUGACCACACGAACCUCAGUGCCUGGACGUGCAGU
modifications: 2'-F on all C and U
B13: g26 2'-F (ssRNA)
RNA: GGGACGCUCACGUACGCUAAGCUCCACCAGGUGUAGCUAGCCUGUAGACAUCAGUAGCAUCAGUGCCUGGACGUGCAGU
modifications: 2'-F on all C and U
B14: g6 2'-F (ssRNA)
RNA: GGGACGCUCACGUACGCUAAUCCAGGUGUGGCGAGCCACUGUAAGAGUCGCCGUGAGGAUUCAGUGCCUGGACGUGCAGU
modifications: 2'-F on all C and U
B15: g16 2'-F (ssRNA)
RNA: GGGACGCUCACGUACGCUAACCGCUACCGGGUGCAACGGGUAGACUGUAACCAGGUGAUAUCAGUGCCUGGACGUGCAGU
modifications: 2'-F on all C and U
B16: g22 2'-F (ssRNA)
RNA: GGGACGCUCACGUACGCUAAGCGUGUUUCUUCAUUUCGACGCUGGCCAACGGAAAUGCAAUCAGUGCCUGGACGUGCAGU
modifications: 2'-F on all C and U
B17: g5 2'-F (ssRNA)
RNA: GGGACGCUCACGUACGCUAAGCCCAACGAACAUUUUGAGUUUCCAGGCAGCUCAUAGACAUCAGUGCCUGGACGUGCAGU
modifications: 2'-F on all C and U
B18: g30 2'-F (ssRNA)
RNA: GGGACGCUCACGUACGCUAAAAAUUGCCGGGAUCUGGUGUGGCGACCAUGCGGCGUGCAUUCAGUGCCUGGACGUGCAGU
modifications: 2'-F on all C and U
B19: g24 2'-F (ssRNA)
RNA: GGGACGCUCACGUACGCUAAGAGUUGUCGCACAGCGACUCGAAAAUAAUCUGUCCGACACUCAGUGCCUGGACGUGCAGU
modifications: 2'-F on all C and U
B20: g28 2'-F (ssRNA)
RNA: GGGACGCUCACGUACGCUAACCUGGGGGUUCCGCAGGAAUCGGGAACUAGAUUGGUGGUCUCAGUGCCUGGACGUGCAGU
modifications: 2'-F on all C and U
B21: g13 2'-F (ssRNA)
RNA: GGGACGCUCACGUACGCUAAUCACUCGGACAGCCGGAGCGAAACGGGCUGUGUAAGACUGUCAGUGCCUGGACGUGCAGU
modifications: 2'-F on all C and U
B22: g27 2'-F (ssRNA)
RNA: GGGACGCUCACGUACGCUAACCUAUGCAGACCGACAUCCGGGUAUACGGGAUGAUGCGACUCAGUGCCUGGACGUGCAGU
modifications: 2'-F on all C and U
B23: g37 2'-F (ssRNA)
RNA: GGGACGCUCACGUACGCUAAGGUUUGCUCCGACCGACUAAAGGGAGCCUCUGUCACGAGUUCAGUGCCUGGACGUGCAGU
modifications: 2'-F on all C and U
B24: g19 2'-F (ssRNA)
RNA: GGGACGCUCACGUACGCUAAGUAGCCGUGAUUGGGUUGGCUGCCCACAAUUAUCCAGGACUCAGUGCCUGGACGUGCAGU
modifications: 2'-F on all C and U
B25: g4 2'-F (ssRNA)
RNA: GGGACGCUCACGUACGCUAAUACCGUGAUUCGGGGUGGUAUCCGGUGGACAUCCAGGUCGUCAGUGCCUGGACGUGCAGU
modifications: 2'-F on all C and U
B26: g8 2'-F (ssRNA)
RNA: GGGACGCUCACGUACGCUAAGGGCACUUAAAACCAGACCGUGAUUUGCGGUUGGUCUCGCUCAGUGCCUGGACGUGCAGU
modifications: 2'-F on all C and U
B27: g36 2'-F (ssRNA)
RNA: GGGACGCUCACGUACGCUAACUUGAUUGGUCGCAACCGGACAAGGACGGGUUGAUGCAGUUCAGUGCCUGGACGUGCAGU
modifications: 2'-F on all C and U
B28: g10 2'-F (ssRNA)
RNA: GGGACGCUCACGUACGCUAAACACAGCUCUGAUGGUCGUGAUUAGGUUGACCACCUACCUUCAGUGCCUGGACGUGCAGU
modifications: 2'-F on all C and U
B29: g31 2'-F (ssRNA)
RNA: GGGACGCUCACGUACGCUAAAGAGUCUAUGCCGUGAGUGAGGGUGGCGCCUCGACUGCCAUCAGUGCCUGGACGUGCAGU
modifications: 2'-F on all C and U
B30: g12 2'-F (ssRNA)
RNA: GGGACGCUCACGUACGCUAACGCGGCCAUCCGGCGUUUGGAACGGGAUGUACACCUGACAUCAGUGCCUGGACGUGCAGU
modifications: 2'-F on all C and U
B31: g20 2'-F (ssRNA)
RNA: GGGACGCUCACGUACGCUAAACGUUGUGGCGAACUUCGGCCCGAACGGGAGUAACUGCAUCAGUGCCUGGACGUGCAGU
modifications: 2'-F on all C and U
B32: g11 2'-F (ssRNA)
RNA: GGGACGCUCACGUACGCUAAGUUUAGGUGGCAUCGACCUUCAUGAAACGGGUGCACAGGCUCAGUGCCUGGACGUGCAGU
modifications: 2'-F on all C and U
B33: g32 2'-F (ssRNA)
RNA: GGGACGCUCACGUACGCUAAACAAGACCGGGAUGGGGGUUGGUCACACACAAAGACUGAAUCAGUGCCUGGACGUGCAGU
modifications: 2'-F on all C and U
B34: g34 2'-F (ssRNA)
RNA: GGGACGCUCACGUACGCUAAUUUGGUGAAUUCCGACCAUUUUGCAAACGGGAUACGGGACUCAGUGCCUGGACGUGCAGU
modifications: 2'-F on all C and U
B35: g17 2'-F (ssRNA)
RNA: GGGACGCUCACGUACGCUAAAGUGAUGGCCGGCUGGAGAAACGGGCCACUCGAUCCAGGUCAGUGCCUGGACGUGCAGU
modifications: 2'-F on all C and U
B36: g10 (ssRNA)
RNA: B28 RNA
B37: g11 (ssRNA)
RNA: B32 RNA

Molecular target: T1, rec-cMet (Recombinant Human HGF R/c-MET/Fc Chimera) (Homo sapiens, UniProt P08581;P08581 SEQ:1-283,SEQ:1-625)
T1 sequence (P08581 25-307, change not shown, chain 1 of 2): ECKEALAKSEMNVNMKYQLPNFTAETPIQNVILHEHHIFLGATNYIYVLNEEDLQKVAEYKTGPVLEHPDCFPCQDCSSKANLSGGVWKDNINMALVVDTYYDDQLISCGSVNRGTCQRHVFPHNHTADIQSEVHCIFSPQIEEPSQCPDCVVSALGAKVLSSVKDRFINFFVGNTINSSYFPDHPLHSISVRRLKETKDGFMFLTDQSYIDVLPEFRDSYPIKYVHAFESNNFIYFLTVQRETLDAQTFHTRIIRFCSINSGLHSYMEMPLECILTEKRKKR
T1 sequence (P08581 308-932, change not shown, chain 2 of 2): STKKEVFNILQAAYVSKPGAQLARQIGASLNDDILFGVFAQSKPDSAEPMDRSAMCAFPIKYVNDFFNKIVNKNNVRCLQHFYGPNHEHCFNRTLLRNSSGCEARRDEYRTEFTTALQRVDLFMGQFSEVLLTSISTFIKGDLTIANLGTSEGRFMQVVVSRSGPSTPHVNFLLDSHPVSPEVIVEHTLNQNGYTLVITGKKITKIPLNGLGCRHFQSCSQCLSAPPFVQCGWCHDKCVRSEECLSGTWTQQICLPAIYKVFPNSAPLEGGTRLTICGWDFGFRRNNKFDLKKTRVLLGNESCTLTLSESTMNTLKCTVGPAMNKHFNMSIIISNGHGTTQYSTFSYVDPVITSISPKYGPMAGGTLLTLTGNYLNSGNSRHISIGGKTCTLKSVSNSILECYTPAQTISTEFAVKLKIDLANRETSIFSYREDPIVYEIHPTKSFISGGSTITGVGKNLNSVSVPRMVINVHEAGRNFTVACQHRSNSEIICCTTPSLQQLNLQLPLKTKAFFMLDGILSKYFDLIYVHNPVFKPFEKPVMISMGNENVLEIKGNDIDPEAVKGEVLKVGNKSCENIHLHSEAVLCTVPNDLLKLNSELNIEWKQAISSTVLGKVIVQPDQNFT
Test: SPR; rec-cMet 60 nM
Details: tags: C-terminal HIEGRMD linker, human IgG Fc (100-330), 6xHis; R&D Systems; chain copies: 2 (inferred, Fc chimera)
Protocol: (§1) Using these truncated RNA aptamers, the binding ability thereof to the rec-cMet was examined. The binding ability was analyzed using BIACORE (registered trademark) X (GE Healthcare) in accordance with its instructions for use, with the concentration of the rec-cMet being set to 175 nmol/L. Also, the binding ability of each of the RNA aptamers g1 and g1-trA was examined in the same manner. As a comparative example, the 40N was used, and the binding ability thereof was examined in the same manner.
(§2) The binding ability of each of the RNA aptamers to the rec-cMet was examined in the same manner as in Example 5, except that the fluorinated RNA aptamers were used. The concentration of the rec-cMet was set to 60 nmol/L. With the time point at which the introduction of the rec-cMet to the chip was started being 0 seconds, introduction of a buffer was started 60 seconds later. As a comparative example, the same negative control as in Example 6 was used.

Binding result, binds:
B1
B2
B3
B4
B5
B6
B7
B8
B9
B10
B11
B12
B13
B14
B15
B16
B17
B18
B19
B20
B21
B22
B23
B24
B25
B26
B27
B28
B29
B30
B31
B32
B33
B34
B35

Molecular target: T1, rec-cMet (Recombinant Human HGF …)
Test: SPR; rec-cMet 100 nM
Details: tags: C-terminal HIEGRMD linker, human IgG Fc (100-330), 6xHis; R&D Systems; chain copies: 2 (inferred, Fc chimera)
Protocol: as §1
as §2, with “the above” for “the fluorinated”, “to 100” for “to 60”, “later.” for “later. As a comparative example, the same negative control as in Example 6 was used.”

Binding result, binds:
B36
B37

Reference: US20130123350, “NUCLEIC ACID MOLECULE CAPABLE OF BINDING TO c-MET AND USE THEREOF” (KANAGAWA PREFECTURAL HOSPITAL ORGANIZATION, published 2013)
